The source of these data is article PMC11108154.

Values joined by “and” are separate entries in the source; they are usually repeats but may differ in a detail not shown here. Equal entries are not always repeated.

Assay [1] deals with ELI-glucagon (Eli Lilly's Glucagon, recombinant, reference listed drug) (UniProt P01275). The experiment in a line: SEC; SEC-HPLC of recently released lots; Phenomenex Yarra 3 um SEC-2000, isocratic 55% 0.1% TFA / 45% acetonitrile, 1.000 mL/min, ambient temperature, UV 214 nm; reconstituted with the included diluent and tested immediately; monomer and dimer told by a calibration curve. On the technique in general: In gel filtration, larger molecules generally elute earlier.

Assay [2] shares this target. The assay can be described thus: SEC; SEC-HPLC of expired lots (end of shelf life); Phenomenex Yarra 3 um SEC-2000, isocratic 55% 0.1% TFA / 45% acetonitrile, 1.000 mL/min, ambient temperature, UV 214 nm; reconstituted with the included diluent and tested immediately; monomer and dimer told by a calibration curve.
For assay [3], the target named is AMP-glucagon (generic synthetic glucagon for injection, Amphastar Pharmaceuticals) (UniProt P01275). Described as above.

The term stoichiometry N denotes a count of units in the complex or per binding partner. As to “ELI-glucagon (Eli Lilly's Glucagon, recombinant, reference listed drug) (from UniProt P01275 53-81) (peptide)”, in assay [1], the % Dimer by SEC-HPLC was 0.04% and 0.042% and 0.038%; the stoichiometry N was 2. For the same substance, in assay [2], the % Dimer by SEC-HPLC is 0.133% and 0.097% and 0.144%; the stoichiometry N turned out to be 2.
Consider “AMP-glucagon (generic synthetic glucagon for injection, Amphastar Pharmaceuticals) (from UniProt P01275 53-81) (peptide)”, for which, in assay [3], the % Dimer by SEC-HPLC was 0.062% and 0.08% and 0.115%; the stoichiometry N is 2.
